Assay results: article PMC5451065

Legend:
[1] = target: cytochrome c oxidase (complex IV) (rat (endogenous in rat liver mitoplasts)); conditions: for Amax of the cytochrome c oxidase reaction, rat liver mitoplasts without cytochrome c: scale: μg atom of the oxygen/min per 1 mg of the protein
[2] = target: ubiquinol–cytochrome c reductase (complex III) (rat (endogenous in rat liver mitoplasts)); conditions: for Amax of the succinate:cytochrome c reductase reaction, rat liver mitoplasts without cytochrome c: scale: μmol of the cyt c /min × mg of the protein

Substance: horse cytochrome c I75G/G77R/T78I (from UniProt P00004 1-105) (natural protein)
- Amax(mut)/Amax(wt) of the cytochrome c oxidase reaction [1]: 86.7%
- Km of the cytochrome c oxidase reaction, rat liver mitoplasts without cytochrome c [1]: 6.47 μM of cyt c
- Amax of the cytochrome c oxidase reaction, rat liver mitoplasts without cytochrome c [1]: 0.636
- Amax(mut)/Amax(wt) of the succinate:cytochrome c reductase reaction [2]: 19.5%
- Km of the succinate:cytochrome c reductase reaction, rat liver mitoplasts without cytochrome c [2]: 20.7 μM of cyt c
- Amax of the succinate:cytochrome c reductase reaction, rat liver mitoplasts without cytochrome c [2]: 0.024

Substance: horse cytochrome c I81L/F82S/A83S/G84A (from UniProt P00004 1-105) (natural protein)
- Amax(mut)/Amax(wt) of the cytochrome c oxidase reaction [1]: 92.1%
- Km of the cytochrome c oxidase reaction, rat liver mitoplasts without cytochrome c [1]: 5.77 μM of cyt c
- Amax of the cytochrome c oxidase reaction, rat liver mitoplasts without cytochrome c [1]: 0.675
- Amax(mut)/Amax(wt) of the succinate:cytochrome c reductase reaction [2]: 44.7%
- Km of the succinate:cytochrome c reductase reaction, rat liver mitoplasts without cytochrome c [2]: 20.7 μM of cyt c
- Amax of the succinate:cytochrome c reductase reaction, rat liver mitoplasts without cytochrome c [2]: 0.055

Substance: horse cytochrome c I81Y/A83Y/G84N (from UniProt P00004 1-105) (natural protein)
- Amax(mut)/Amax(wt) of the cytochrome c oxidase reaction [1]: 23.6%
- Km of the cytochrome c oxidase reaction, rat liver mitoplasts without cytochrome c [1]: 5 μM of cyt c
- Amax of the cytochrome c oxidase reaction, rat liver mitoplasts without cytochrome c [1]: 0.173
- Amax(mut)/Amax(wt) of the succinate:cytochrome c reductase reaction [2]: 13%
- Km of the succinate:cytochrome c reductase reaction, rat liver mitoplasts without cytochrome c [2]: 24.7 μM of cyt c
- Amax of the succinate:cytochrome c reductase reaction, rat liver mitoplasts without cytochrome c [2]: 0.016

Substance: horse cytochrome c K79V/I81L/F82R (from UniProt P00004 1-105) (natural protein)
- Amax(mut)/Amax(wt) of the cytochrome c oxidase reaction [1]: 97.8%
- Km of the cytochrome c oxidase reaction, rat liver mitoplasts without cytochrome c [1]: 6.19 μM of cyt c
- Amax of the cytochrome c oxidase reaction, rat liver mitoplasts without cytochrome c [1]: 0.717
- Amax(mut)/Amax(wt) of the succinate:cytochrome c reductase reaction [2]: 8.1%
- Km of the succinate:cytochrome c reductase reaction, rat liver mitoplasts without cytochrome c [2]: 1.24 μM of cyt c
- Amax of the succinate:cytochrome c reductase reaction, rat liver mitoplasts without cytochrome c [2]: 0.01

Substance: horse cytochrome c T78A/K79A/I81A/F82T (from UniProt P00004 1-105) (natural protein)
- Amax(mut)/Amax(wt) of the cytochrome c oxidase reaction [1]: 61.8%
- Km of the cytochrome c oxidase reaction, rat liver mitoplasts without cytochrome c [1]: 5.31 μM of cyt c
- Amax of the cytochrome c oxidase reaction, rat liver mitoplasts without cytochrome c [1]: 0.453
- Amax(mut)/Amax(wt) of the succinate:cytochrome c reductase reaction [2]: 3.2%
- Km of the succinate:cytochrome c reductase reaction, rat liver mitoplasts without cytochrome c [2]: 8.94 μM of cyt c
- Amax of the succinate:cytochrome c reductase reaction, rat liver mitoplasts without cytochrome c [2]: 0.004

Substance: horse cytochrome c T78A/K79A/I81A/F82T/T89A (from UniProt P00004 1-105) (natural protein)
- Amax(mut)/Amax(wt) of the cytochrome c oxidase reaction [1]: 92.3%
- Km of the cytochrome c oxidase reaction, rat liver mitoplasts without cytochrome c [1]: 5.31 μM of cyt c
- Amax of the cytochrome c oxidase reaction, rat liver mitoplasts without cytochrome c [1]: 0.677
- Amax(mut)/Amax(wt) of the succinate:cytochrome c reductase reaction [2]: 2.4%
- Km of the succinate:cytochrome c reductase reaction, rat liver mitoplasts without cytochrome c [2]: 5.08 μM of cyt c
- Amax of the succinate:cytochrome c reductase reaction, rat liver mitoplasts without cytochrome c [2]: 0.003

Substance: horse cytochrome c T78N/K79Y/M80I/I81M/F82N (from UniProt P00004 1-105) (natural protein)
- Amax(mut)/Amax(wt) of the cytochrome c oxidase reaction [1]: 38.6%
- Km of the cytochrome c oxidase reaction, rat liver mitoplasts without cytochrome c [1]: 4.96 μM of cyt c
- Amax of the cytochrome c oxidase reaction, rat liver mitoplasts without cytochrome c [1]: 0.283
- Amax(mut)/Amax(wt) of the succinate:cytochrome c reductase reaction [2]: 6.5%
- Km of the succinate:cytochrome c reductase reaction, rat liver mitoplasts without cytochrome c [2]: 11 μM of cyt c
- Amax of the succinate:cytochrome c reductase reaction, rat liver mitoplasts without cytochrome c [2]: 0.008

Substance: horse cytochrome c T78S/K79P (from UniProt P00004 1-105) (natural protein)
- Amax(mut)/Amax(wt) of the cytochrome c oxidase reaction [1]: 47.5%
- Km of the cytochrome c oxidase reaction, rat liver mitoplasts without cytochrome c [1]: 5.04 μM of cyt c
- Amax of the cytochrome c oxidase reaction, rat liver mitoplasts without cytochrome c [1]: 0.348
- Amax(mut)/Amax(wt) of the succinate:cytochrome c reductase reaction [2]: 3.2%
- Km of the succinate:cytochrome c reductase reaction, rat liver mitoplasts without cytochrome c [2]: 17.4 μM of cyt c
- Amax of the succinate:cytochrome c reductase reaction, rat liver mitoplasts without cytochrome c [2]: 0.004

Substance: wild-type horse cytochrome c (from UniProt P00004 1-105) (natural protein)
- Km of the cytochrome c oxidase reaction, rat liver mitoplasts without cytochrome c [1]: 5.4 μM of cyt c
- Amax of the cytochrome c oxidase reaction, rat liver mitoplasts without cytochrome c [1]: 0.733
- Km of the succinate:cytochrome c reductase reaction, rat liver mitoplasts without cytochrome c [2]: 20.9 μM of cyt c
- Amax of the succinate:cytochrome c reductase reaction, rat liver mitoplasts without cytochrome c [2]: 0.123
